In assay [1] the target is IFNAR1 as used in the microscale thermophoresis binding assay (Homo sapiens (Human)) (UniProt P17181). Kind of assay: microscale thermophoresis binding assay. On the technique in general: MST reads how a fluorescent partner responds to local heating, with and without ligand.
Assay [2] has as its target T1, IFNGR1, human, endogenous in podocytes (human, UniProt P15260 18-489).
T1 construct: whole, on cells
T1 sequence (looked up): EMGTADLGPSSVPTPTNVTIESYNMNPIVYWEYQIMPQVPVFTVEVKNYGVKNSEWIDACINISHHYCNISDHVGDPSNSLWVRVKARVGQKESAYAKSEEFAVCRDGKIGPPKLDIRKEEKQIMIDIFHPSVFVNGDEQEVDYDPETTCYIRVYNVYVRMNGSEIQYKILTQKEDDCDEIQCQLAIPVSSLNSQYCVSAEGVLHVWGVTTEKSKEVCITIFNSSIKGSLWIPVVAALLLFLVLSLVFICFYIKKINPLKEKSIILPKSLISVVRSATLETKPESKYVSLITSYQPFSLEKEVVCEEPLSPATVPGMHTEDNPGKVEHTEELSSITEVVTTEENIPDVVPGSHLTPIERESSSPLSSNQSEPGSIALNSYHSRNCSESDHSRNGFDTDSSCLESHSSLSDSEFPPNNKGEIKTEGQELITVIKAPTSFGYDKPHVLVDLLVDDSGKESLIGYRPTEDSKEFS
Nature of the assay: TF co-immunoprecipitation from human podocyte lysates, immunoblot. On the technique in general: A western blot detects proteins with antibodies after separation by electrophoresis.

In general, Kd refers to the free concentration of one partner at which half of the binding sites on the other are occupied at equilibrium, for simple one-to-one binding. In assay [1], “tissue factor (TF) as used in the microscale thermophoresis binding assay (from UniProt P13726 33-251) (receptor)” gave an equilibrium dissociation constant (Kd) of 1160 nM.

B1: tissue factor (TF), human, as expressed by cells (receptor)
chain: SGTTNTVAAYNLTWKSTNFKTILEWEPKPVNQVYTVQISTKSGDWKSKCFYTTDTECDLTDEIVKDVKQTYLARVFSYPAGNVESTGSAGEPLYENSPEFTPYLETNLGQPTIQSFEQVGTKVNVTVEDERTLVRRNNTFLSLRDVFGKDLIYTLYYWKSSSSGKKTAKTNTNEFLIDVDKGENYCFSVQAVIPSRTVNRKGTDSPVECMGQEKGEFREIFYIIGAVVFVVIILVIILAISLHKCRKAGVGQSWKENSPLNVS
notes: also called hTF; human TF
Take B1: in assay [2], the binding result was “no binding”.

For the origin of these results see patent publication EP4545090A1 (Universität Leipzig, dated 2025).
